# Measurements taken from publication PMC7412702.
# B1: MYC-tagged human wild-type ZP3 [human] / HA-tagged wild-type human ZP1 [human] (parent)
# chain 1: QPLWLLQGGASHPETSVQPVLVECQEATLMVMVSKDLFGTGKLIRAADLTLGPEACEPLVSMDTEDVVRFEVGLHECGNSMQVTDDALVYSTFLLHDPRPVGNLSIVRTNRAEIPIECRYPRQGNVSSQAILPTWLPFRTTVFSEEKLTFSLRLMEENWNAEKRSPTFHLGDAAHLQAEIHTGSHVPLRLFVDHCVATPTPDQNASPYHTIVDFHGCLVDGLTDASSAFKVPRPGPDTLQFTVDVFHFANDSRNMIYITCHLKVTLAEQDPDELNKACSFSKPSNSWFPVEGSADICQCCNKGDCGTPSHSRRQPHVMSQWSRSASRN
# chain 2: RWLQPDPGLPGLRHSYDCGIKGMQLLVFPRPGQTLRFKVVDEFGNRFDVNNCSICYHWVTSRPQEPAVFSADYRGCHVLEKDGRFHLRVFMEAVLPNGRVDVAQDATLICPKPDPSRTLDSQLAPPAMFSVSTPQTLSFLPTSGHTSQGSGHAFPSPLDPGHSSVHPTPALPSPGPGPTLATLAQPHWGTLEHWDVNKRDYIGTHLSQEQCQVASGHLPCIVRRTSKEACQQAGCCYDNTREVPCYYGNTATVQCFRDGYFVLVVSQEMALTHRITLANIHLAYAPTSCSPTQHTEAFVVFYFPLTHCGTTMQVAGDQLIYENWLVSGIHIQKGPQGSITRDSTFQLHVRCVFNASDFLPIQASIFPPPSPAPMTQPGPLRLELRIAKDETFSSYYGEDDYPIVRLLREPVHVEVRLLQRTDPNLVLLLHQCWGAPSANPFQQPQWPILSDGCPFKGDSYRTQMVALDGATPFQSHYQRFTVATFALLDSGSQRALRGLVYLFCSTSACHTSGLETCSTACSTGTTRQ
# B2: HA-tagged wild-type human ZP1 [human] / MYC-tagged human wild-type ZP3 [human] (parent)
# chain 1: B1 chain 2
# chain 2: B1 chain 1
# Variants of: B1
# Test: co-IP (IP: MYC as labelled in the image, blot anti-HA), densitometry
# Settings: with HA-tagged wild-type human ZP1 [human]; HeLa cells; mutant lane co-transfected with MYC-ZP3WT + MYC-ZP3A134T + HA-ZP1 (imitating heterozygous state); parent lane MYC-ZP3WT + HA-ZP1; parent: 1; read off a plot; scale: relative protein level
row,response,Variant
1,0.87,chain 1 QPLWLLQGGASHPETSVQPVLVECQEATLMVMVSKDLFGTGKLIRAADLTLGPEACEPLVSMDTEDVVRFEVGLHECGNSMQVTDDALVYSTFLLHDPRPVGNLSIVRTNRTEIPIECRYPRQGNVSSQAILPTWLPFRTTVFSEEKLTFSLRLMEENWNAEKRSPTFHLGDAAHLQAEIHTGSHVPLRLFVDHCVATPTPDQNASPYHTIVDFHGCLVDGLTDASSAFKVPRPGPDTLQFTVDVFHFANDSRNMIYITCHLKVTLAEQDPDELNKACSFSKPSNSWFPVEGSADICQCCNKGDCGTPSHSRRQPHVMSQWSRSASRN [chain 1 A112T]

# Variants of: B2
# Test: co-IP (IP: anti-HA, blot anti-MYC), densitometry
# Settings: with MYC-tagged human wild-type ZP3 [human]; HeLa cells; mutant lane co-transfected with HA-ZP1WT + HA-ZP1R109H + MYC-ZP3 (imitating heterozygous state); parent lane HA-ZP1WT + MYC-ZP3; parent: 1; read off a plot; scale: relative protein level
row,response,Variant
1,0.22,chain 1 RWLQPDPGLPGLRHSYDCGIKGMQLLVFPRPGQTLRFKVVDEFGNRFDVNNCSICYHWVTSRPQEPAVFSADYRGCHVLEKDGHFHLRVFMEAVLPNGRVDVAQDATLICPKPDPSRTLDSQLAPPAMFSVSTPQTLSFLPTSGHTSQGSGHAFPSPLDPGHSSVHPTPALPSPGPGPTLATLAQPHWGTLEHWDVNKRDYIGTHLSQEQCQVASGHLPCIVRRTSKEACQQAGCCYDNTREVPCYYGNTATVQCFRDGYFVLVVSQEMALTHRITLANIHLAYAPTSCSPTQHTEAFVVFYFPLTHCGTTMQVAGDQLIYENWLVSGIHIQKGPQGSITRDSTFQLHVRCVFNASDFLPIQASIFPPPSPAPMTQPGPLRLELRIAKDETFSSYYGEDDYPIVRLLREPVHVEVRLLQRTDPNLVLLLHQCWGAPSANPFQQPQWPILSDGCPFKGDSYRTQMVALDGATPFQSHYQRFTVATFALLDSGSQRALRGLVYLFCSTSACHTSGLETCSTACSTGTTRQ [chain 1 R84H]
